The values below come from patent US20260250378A1.

Experiment [1] addresses T1, purified fragment of human CNX containing Amino acids 1-481 fused to human FC region (FC-CNX) (human) (UniProt P27824).
T1 sequence (looked up): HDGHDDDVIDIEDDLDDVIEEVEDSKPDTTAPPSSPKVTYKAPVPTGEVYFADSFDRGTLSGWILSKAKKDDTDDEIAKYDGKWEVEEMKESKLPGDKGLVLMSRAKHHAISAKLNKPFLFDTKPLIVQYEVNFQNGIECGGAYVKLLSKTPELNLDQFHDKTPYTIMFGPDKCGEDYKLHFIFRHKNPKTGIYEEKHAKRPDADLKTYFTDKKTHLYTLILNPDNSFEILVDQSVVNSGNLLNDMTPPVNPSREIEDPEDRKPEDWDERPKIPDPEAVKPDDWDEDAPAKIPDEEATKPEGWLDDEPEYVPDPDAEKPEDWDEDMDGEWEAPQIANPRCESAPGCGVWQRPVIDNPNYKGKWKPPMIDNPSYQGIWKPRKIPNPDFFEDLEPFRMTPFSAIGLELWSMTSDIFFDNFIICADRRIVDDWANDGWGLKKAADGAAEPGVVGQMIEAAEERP
Kind of experiment: BLI (Octet), scFv on penta-His sensor, FC-CNX 90, 30, 10, 3.3 nM; same value in the inset box of the Fitting View (Full X^2 0.108, Full R^2 0.9955).

Experiment [2] has as its target T1, purified fragment of human CNX containing Amino acids 1-481 fused to human FC region (FC-CNX) (human). The experiment in a line: BLI (Octet), scFv on penta-His sensor, FC-CNX 90, 30, 10, 3.3 nM.
The target is the same in experiment [3]. Kind of experiment: BLI (Octet), scFv on penta-His sensor, FC-CNX 90, 30, 10, 3.3 nM; printed without the letter E.

B1: scFv clone 8 (C008) (scFv, part only; not given: His and myc tags, phage protein, not shown: another chain or arm of the molecule; large carriers; small tags and cut ends)
scFv: QVQLVQSGGGVVQPGRSLRLSCAASGFTVSSNYMSWVRQAPGKGLEWVSVIYSGGSTYYADSVKGRFTISRDNSKNTLYLQMNSLRAEDTAVYYCARGSRAVAGAFDYWGQGTLVTVSSGGGGSGGGGSGGGGSYSELTQDPAVSVALGQTVRITCQGDSLRTYYANWYQQKPGQAPVLVMYAKNHRPSGIPDRFSGSSSGNTASLTITGAQAEDEADYYCGSRDSSGNHPVFGGGTKVTVL
As for B1, the Kd in experiment [1] was 131 pM. In addition, the koff in experiment [2] was 0.000149 s⁻¹. The molecule also showed a kon in experiment [3] of 1.14e+06 M⁻¹ s⁻¹.
